Data set [1] deals with hGR G442 K442G (Homo sapiens). Particulars: immunoprecipitation DNA binding; transcription <1; specificity minimally affected.
Data set [2] has as its system hGR G446 446G (Homo sapiens). Particulars: immunoprecipitation DNA binding; transcription 40; may be unstable in vitro.
Data set [3] has as its system hGR G447 447G (Homo sapiens). As to conditions: immunoprecipitation DNA binding; transcription <1.
The subject of data set [4] is hGR G462 462G (Homo sapiens). Particulars: immunoprecipitation DNA binding; transcription 80.
For data set [5], the system named is hGR delta420-451 del420-451 (positions given are the non-deleted residues at the junction) (Homo sapiens). As to conditions: immunoprecipitation DNA binding; transcription <1.
The test system of data set [6] is hGR G423 423G (Homo sapiens). As to conditions: immunoprecipitation DNA binding; transcription <1.
For data set [7], the system named is hGR G426 D426G (Homo sapiens). Particulars: immunoprecipitation DNA binding; transcription 75.
The test system of data set [8] is hGR G479 479G (Homo sapiens). Particulars: immunoprecipitation DNA binding; transcription 65.
Data set [9] relates to hGR G480 480G (Homo sapiens). As to conditions: immunoprecipitation DNA binding; transcription 90.
Data set [10] concerns hGR G486 486G (Homo sapiens). Particulars: immunoprecipitation DNA binding; transcription 10; may be unstable in vitro.
Data set [11] relates to hGR G481 481G (Homo sapiens). Particulars: immunoprecipitation DNA binding; transcription <1.
Data set [12] has as its system hGR G455 455G (Homo sapiens). As to conditions: immunoprecipitation DNA binding; transcription 80; may be unstable in vitro.
For data set [13], the system named is hGR G457 457G (Homo sapiens). Particulars: immunoprecipitation DNA binding; transcription <1.
Data set [14] has as its system hGR G465 465G (Homo sapiens). As to conditions: immunoprecipitation DNA binding; transcription 1.
The test system of data set [15] is hGR G463 463G (Homo sapiens). As to conditions: immunoprecipitation DNA binding; transcription <1.
For data set [16], the system named is hGR G473 473G (Homo sapiens). As to conditions: immunoprecipitation DNA binding; transcription <1.
For data set [17], the system named is hGR G433 433G (Homo sapiens). Particulars: immunoprecipitation DNA binding; transcription 2.
The subject of data set [18] is hGR G477 477G (Homo sapiens). Particulars: immunoprecipitation DNA binding; transcription <1.
In data set [19] the test system is hGR G421 421G (Homo sapiens). As to conditions: immunoprecipitation DNA binding; transcription <1.
Data set [20] relates to hGR G431 C431G (Homo sapiens). As to conditions: immunoprecipitation DNA binding; transcription 80.
Data set [21] relates to hGR G445 445G (Homo sapiens). Particulars: immunoprecipitation DNA binding; transcription <1.
Data set [22] has as its system hGR G438 438G (Homo sapiens). Particulars: immunoprecipitation DNA binding; transcription <1.
Data set [23] concerns hGR G432 432G (Homo sapiens). Particulars: immunoprecipitation DNA binding; transcription 10.
Data set [24] deals with hGR G474 474G (Homo sapiens). As to conditions: immunoprecipitation DNA binding; transcription 60.
For data set [25], the system named is hGR G450 450G (Homo sapiens). As to conditions: immunoprecipitation DNA binding; transcription 60.
Data set [26] relates to hGR G444 444G (Homo sapiens). Particulars: immunoprecipitation DNA binding; transcription <1.
The subject of data set [27] is hGR delta450-487 del450-487 (positions given are the non-deleted residues at the junction) (Homo sapiens). As to conditions: immunoprecipitation DNA binding; transcription <1.
For data set [28], the system named is hGR G470 470G (Homo sapiens). As to conditions: immunoprecipitation DNA binding; transcription 3.
In data set [29] the test system is hGR G476 476G (Homo sapiens). As to conditions: immunoprecipitation DNA binding; transcription <1.
Data set [30] relates to hGR-SB (human glucocorticoid receptor, wild-type-equivalent parent) (Homo sapiens). As to conditions: immunoprecipitation DNA binding, reference; transcription 100.
Data set [31] relates to hGR G437 437G (Homo sapiens). Particulars: immunoprecipitation DNA binding; transcription 20.
Data set [32] deals with hGR G460 460G (Homo sapiens). As to conditions: immunoprecipitation DNA binding; transcription 55.
For data set [33], the system named is hGR G467 467G (Homo sapiens). Particulars: immunoprecipitation DNA binding; transcription 40; may be unstable in vitro.
Data set [34] concerns hGR G471 471G (Homo sapiens). As to conditions: immunoprecipitation DNA binding; transcription 10.
The test system of data set [35] is hGR G453 453G (Homo sapiens). As to conditions: immunoprecipitation DNA binding; transcription 90.
In data set [36] the test system is hGR G441 441G (Homo sapiens). Particulars: immunoprecipitation DNA binding; transcription <1.
The subject of data set [37] is hGR G424 424G (Homo sapiens). Particulars: immunoprecipitation DNA binding; transcription <1.
Data set [38] deals with G-gal-G (hGR with DNA-binding domain replaced by GAL4 residues 1-74) (Homo sapiens / Saccharomyces cerevisiae). Briefly: cell_activity.
In data set [39] the test system is GAL4 (Saccharomyces cerevisiae). Briefly: cell_activity. Particulars: CAT reporter; lost on deletion of the GAL4 site.

The values below come from US5310662.

Take GRE-containing DNA fragment: the binding signal in data set [1] was 60 % of hGR-SB; in [2] it was 6 % of hGR-SB; in data set [3] it was 2 % of hGR-SB; in data set [4] it was 40 % of hGR-SB; in data set [5], 1 % of hGR-SB; in data set [6] it was < 1 % of hGR-SB. Moreover, the binding signal in data set [7] was 75 % of hGR-SB; in [8] it was 40 % of hGR-SB; in [9] it was 50 % of hGR-SB; in data set [10], 1 % of hGR-SB; in data set [11], 3 % of hGR-SB; in data set [12] it was 6 % of hGR-SB. The binding signal in data set [13] is 2 % of hGR-SB; in [14] it was 1 % of hGR-SB; in [15], 1 % of hGR-SB; in data set [16] it was < 1 % of hGR-SB; in [17], 1 % of hGR-SB; in data set [18] it was 1 % of hGR-SB. The binding signal was < 1 % of hGR-SB in data set [19]; 10 % of hGR-SB in data set [20]; < 1 % of hGR-SB in [21]; < 1 % of hGR-SB in [22]; 30 % of hGR-SB in [23]; 95 % of hGR-SB in data set [24]. Further, the binding signal is 50 % of hGR-SB in data set [25]; 1 % of hGR-SB in [26]; 1 % of hGR-SB in [27]; 4 % of hGR-SB in data set [28]; < 1 % of hGR-SB in data set [29]; 100% in [30]. Moreover, the binding signal was 8 % of hGR-SB in data set [31]; 90 % of hGR-SB in data set [32]; 6 % of hGR-SB in [33]; 6 % of hGR-SB in data set [34]; 60 % of hGR-SB in data set [35]; < 1 % of hGR-SB in [36]. For the same substance, the binding signal in data set [37] is 1 % of hGR-SB.

On to “deltaMTV-CAT promoter (GREs deleted, no GAL4 site)”, for which the activity (% of deltaMTV-GAL-CAT) in data set [38] (possible cryptic GAL4 site) was determined as 5.

For “deltaMTV-GAL-CAT promoter with synthetic GAL4 site 17MX”, the activity in data set [38] (CAT reporter, hormone dependent) turned out to be 500 fold; in [39], 20 fold.
